The text below walks through data of patent US20260210971A1 (Pfizer, published 2026).

Assay [1] addresses T1, endogenous TL1A of stimulated cynomolgus monkey peripheral blood (cynomolgus monkey, UniProt G7PRK8 72-251).
T1 construct: also called sTL1A (cynomolgus)
T1 sequence: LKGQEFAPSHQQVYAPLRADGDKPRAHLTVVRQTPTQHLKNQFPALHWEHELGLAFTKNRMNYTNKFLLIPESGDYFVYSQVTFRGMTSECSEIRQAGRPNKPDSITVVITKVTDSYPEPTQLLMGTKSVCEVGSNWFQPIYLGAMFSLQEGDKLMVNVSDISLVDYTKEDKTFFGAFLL
In words: MSD ligand-binding assay of 1D1 1.31-free sTL1A in plasma of stimulated cynomolgus blood; lower end over the monkeys; lower end of range over 6 monkeys.
Procedure: Cynomolgus monkey peripheral blood treated with 1 ng/ml recombinant human IL-12 and 10 ng/ml recombinant human IL-18 was stimulated by immune complex coated plates for 24 hours at 37° C. […] Plasma was prepared from these samples and IFNγ was measured in the plasma samples by a quantitative immune-ligand binding assay using a Mesoscale (MSD) kit. […] Cynomolgus monkey peripheral blood treated with 1 ng/ml recombinant human IL-12 and 10 ng/ml recombinant human IL-18 was stimulated by immune complex coated plates for 24 hours at 37° C.
For IC and IL-12 and IL-18 stimulation, cynomolgus monkey blood was collected in sodium heparin coated tubes and used within one hour after the blood draw. Human IL-12 (1 ng/mL final concentration) and human IL-18 (10 ng/ml final concentration) were mixed in with blood prior to addition of 95 μL of the blood/IL-12/IL-18 mixture to each well of the IC coated plates.

Assay [2] addresses T2, recombinant soluble human TL1A (human, UniProt O95150 71-251).
T2 construct: Homotrimer, expressed in HEK293 and purified over HitrapNTA; no tag is described; Used biotinylated in the HTRF assay and in flow cytometry; also called rsTL1A; hTL1A
T2 sequence: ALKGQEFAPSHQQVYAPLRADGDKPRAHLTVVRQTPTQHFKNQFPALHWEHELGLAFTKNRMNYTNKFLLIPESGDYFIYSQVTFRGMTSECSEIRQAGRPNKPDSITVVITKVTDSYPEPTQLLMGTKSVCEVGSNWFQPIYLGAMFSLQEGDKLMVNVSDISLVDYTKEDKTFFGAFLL
The assay can be described thus: plate ELISA, TL1A coated, antibody titrated; plate of TNFSF6; plate of TNFSF6. (An ELISA detects its analyte on a solid surface through an enzyme-linked reagent.)
Procedure: The first 6 rows of each plate were coated with the test article cytokine, and the last two rows were coated with TL1A as a positive control. Rows 1 and 2 were duplicate rows where the test article cytokine was tested for binding to increasing concentrations of its corresponding anti-cytokine positive control antibody. […] The experiment for each cytokine was repeated three times.
Plates were incubated overnight at 4° C. After washing the plates three times (3×) with 300 μL PBST using a plate washer (model ELx405; BioTek), plates were blocked by incubating for 1 hour at room temperature with 300 μL of blocking buffer (PBST+0.5% BSA) in each well. […] Plates were then washed 5 times with PBST using the plate washer.

B1: 1D1 1.31 (antibody, human IgG1, kappa, V domains shown)
VH: QVQLVQSGAEVKKPGASVKVSCKASGYDFTYYGISWVRQAPGQGLEWMGWISTYNGNTHYARMLQGRVTMTTDTSTRTAYMELRSLRSDDTAVYYCARENYYGSGAYRGGMDVWGQGTTVTVSS
VL: EIVLTQSPATLSLSPGERATLSCRASQSVSSYLAWYQQKPGQAPRLLIYDASNRATGIPARFSGSGSGTDFTLTISSLEPEDFAVYYCQQRSNWPWTFGQGTKVEIKR
notes: Full length human IgG1 with effector function-null mutations in the Fc, produced in CHO cells; Used biotinylated for staining of monocytes
For orientation: IC50 means the midpoint of a concentration-inhibition curve. Broadly, the EC50 is the concentration that produces a half-maximal response. Molecule B1 came in with an IC50 in assay [1] of 0.114 pM. Also, the EC50 in assay [2] was 0.0085 ng/mL.
